± gives the uncertainty stated by the source.
Assay: amyloid nucleation score (Sup35N fusion, yeast selection) (log enrichment); library NNK1; higher = more nucleation; inactive = no reads after selection
Outline: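 Psi-negative yeast expressed Sup35N fused to peptides of 20 random codons. They were induced 24 hours with 100 μM copper sulfate, grown 7 days at 30°C without adenine and uracil, and their plasmid inserts from input and output were Illumina-sequenced. The nucleation score is the DiMSum log enrichment of output over input reads, centred on the mode score of non-aggregating sequences. Sequences with under 100 input reads were excluded.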

Row | Substance | amyloid nucleation score
1 | KLYGVSCAPLSEDHCLGKAA | -0.339 ± 0.48
2 | FRFSHRLFLWPKYFSIFKNS | 0.37 ± 0.35
3 | LWFSYATCICIPRIPSNC | 6.26 ± 0.071
4 | GIDVCWSFFILYVWERVIRG | 0.337 ± 0.36
5 | KVLELYRILYRREHNFWVEV | -0.317 ± 1.6
6 | RFQVPLCIPLINC | 0.886 ± 0.74
7 | DCGDNRLTTEGQKSSSPVAD | 0.378 ± 0.3
8 | AVLYLSQFGLNRKRGYTA | 0.582 ± 0.56
9 | GPFHRWNL | -0.129 ± 1.6
10 | PRCFYLMSGEMISTYECKRT | 1.05 ± 0.39
11 | NLYYWYGTVSIWFYNRWFGV | -0.021 ± 0.66
12 | PVCWSHFYFRVDVFYEWGRV | -0.274 ± 0.39
13 | VTYTEYCSVLLKTH | -1.81 ± 2.4
14 | FQASSLTGPH | -0.574 ± 0.36
15 | VTSSWNSDAFTWFYNDSWCL | inactive
16 | SWWPDGLNEMSG | 1.11 ± 0.74
17 | SLSFVVSGMRFAFAGFFMVS | -0.055 ± 0.21
18 | KQTLLYHSSGSCCWELVSWW | 4.39 ± 0.097
19 | HWVGFLRYTSIKDDHQFGSK | -0.323 ± 0.51
20 | SKQFQASFHRVYSSVFSGWH | 0.669 ± 0.38
21 | GMWSTNANTPILVILRGVVM | 0.71 ± 1.1
22 | RVMFACF | 0.15 ± 0.37
23 | HLHLGCWW | 3.31 ± 0.14
24 | DGLRCIGCIGNTGDWNS | 6.86 ± 0.085
25 | SLGVDYDTGSVVYVAGCNCR | 0.009 ± 0.46

Row | Substance | amyloid nucleation score
26 | RLRDIG | -0.684 ± 1.2
27 | LYNFVGSNRIRFASCTQLLC | 1.87 ± 0.38
28 | EKSGAWSTVRRMISC | 0.374 ± 0.23
29 | AHSANSKIVSFRMLDDYRPD | 1.1 ± 0.39
30 | MYGNES | -0.02 ± 0.4
31 | KIFDMRVESVYWVGRSPSKV | 0.706 ± 0.17
32 | TLAGRCINDCILEGDMSRCF | 2.18 ± 0.57
33 | HLGSNFKISAGAINVRLSHR | 4.76 ± 0.1
34 | HVDDIWWTTFMYFPRCHLHV | 0.858 ± 0.57
35 | LTRGQSLPMCATSVFEEYSH | 0.325 ± 0.43
36 | LLICADVITFCFECTMRTGF | 4.13 ± 0.064
37 | IGCGGVPKNQCWGPERFLEW | -0.132 ± 0.57
38 | VFYKYRQGARYDFF | 0.227 ± 0.89
39 | ILENTVCSIFVSVVIANVGL | 1.94 ± 0.53
40 | FGGSLMASFDCTRPSSMER | -0.606 ± 1.6
41 | WWLRVVS | 0.041 ± 0.78
42 | SGGYLADYPLRVNLLFFNFV | 0.431 ± 0.43
43 | TPSIYRNVCDIEGLLSSRYL | 0.36 ± 0.54
44 | TLDKDLDMGRP | 0.625 ± 0.56
45 | GPSLWLKTMVKGYAKTGLYR | -0.219 ± 0.32
46 | YPCCKICDYIKS | -0.018 ± 0.23
47 | WSSKLFCIGLDLCVVDDMCF | 2.44 ± 0.12
48 | VVLRLRSSYFGGLAGMA | 0.121 ± 0.33
49 | LVRRFLSWRIQSLDPIKK | -0.425 ± 0.76
50 | DANNIRLDDSFELRWCKNVC | -1.36 ± 0.91

Row | Substance | amyloid nucleation score
51 | LILILNGMRNWSLAEDGACS | 0.326 ± 0.85
52 | YTTHLCLGAVSLYYVSGYTR | 2.44 ± 0.13
53 | MGNIVTLHFSHVGHRYSKWV | inactive
54 | IVSMRL | 0.216 ± 1.4
55 | NTDYSQAGVCGSRCLNSAL | 1.54 ± 0.69
56 | VRRSEHSRLSYEWGECLRLT | -0.174 ± 0.38
57 | SFLLGQGTL | 0.724 ± 0.69
58 | FPDYVDTTFRQIWECLWFFP | inactive
59 | PGFFWHICFG | 4.55 ± 0.082
60 | WDWSERLQAFWSVTLSSNSW | 0.517 ± 0.71
61 | MYSKIYIFNLEFLMTYWNAL | 1.92 ± 0.3
62 | VLRWYEDNPFC | 0.291 ± 0.32
63 | SHLGVVCNRLVYERETNVST | -0.191 ± 0.29
64 | CKCWFM | 0.307 ± 0.52
65 | SVGDVVYGEFLIAKQSAACV | 0.115 ± 0.44
66 | LIKLLRVKRMYASYLFSNKV | -1.33 ± 1.6
67 | FSNIWMSTMVPSRVRKARCV | 0.05 ± 0.75
68 | DETWLSLQVNLLLFYSRMDM | -0.153 ± 0.66
69 | SYRFFRGMMYLSHVIDLQSR | -0.307 ± 1.1
70 | SPMMVNVYATDDVDLPSWLM | -0.293 ± 0.47
71 | EHTSGVDFIVNNLSECFTLR | inactive
72 | SSRGRPLQPSIQIKYSFVMY | 4.13 ± 0.095
73 | LLIWRN | 0.995 ± 0.62
74 | GESHPFNVFRYCL | 1.42 ± 0.14
75 | FSQRMGICYNVREFCNEFRC | 1.47 ± 0.14

Row | Substance | amyloid nucleation score
76 | DSGTLDQYH | 0.157 ± 0.86
77 | FVGCRHHFGPCTNRCTK | 0.087 ± 0.9
78 | VRSKLPPGSFDSFWGWWEKK | -0.343 ± 0.45
79 | HRQTNKGEHIQDHAAMLVFR | -0.18 ± 0.63
80 | HPLRLYRKSISINVVLSSCL | 0.733 ± 0.88
81 | RRAPLNLTREVSSVWEWRII | -0.631 ± 0.68
82 | TFPGDGRFPKVSKVYDPVLE | inactive
83 | FGIWIRGFRTYDECHPAHGC | 0.434 ± 0.41
84 | CVKERELIFFWYVVRSEYDL | -0.485 ± 0.47
85 | STVLATFHVE | 0.041 ± 0.37
86 | VLIWPGRRNSARSYWSSSGL | 1.21 ± 0.66
87 | MKFRINVDLLLNLDNPGIKL | 0.165 ± 0.45
88 | AVEVLGPCRNLRVWSNLDLG | -0.072 ± 0.74
89 | TFTPWKVDVLSRYRMQGCAQ | 0.556 ± 0.47
90 | RYHRTGCLGILWLSLSHRLS | 0.418 ± 0.59
91 | TFIVQPFLTENPIASRFESA | 0.063 ± 0.38
92 | RWSFSSTY | 3.69 ± 0.085
93 | SMVKRSSVVYGLSRGSIKER | 1.08 ± 0.69
94 | YRRGKIAWGSTARHETVFIL | 0.336 ± 0.52
95 | IVLPVCDIITEAVLSCNSPG | 0.318 ± 0.33
96 | CCLLDWSLDNGYNRQLRKET | 0.219 ± 0.32
97 | KHQSHFLVV | 0.872 ± 0.45
98 | LLWNDCGFLRWASGH | 2.59 ± 0.11
99 | NELWCKADVMS | inactive
100 | LYPMGYVRRCI | -0.29 ± 0.54

Row | Substance | amyloid nucleation score
101 | CRLHVNGLVIVCASWKCGA | 3.76 ± 0.1
102 | EYLLNNPVGRCFDLLFNSIG | -0.881 ± 0.66
103 | SCAWRYNICTLISVRWVCK | 0.756 ± 0.34
104 | WFTDGT | inactive
105 | YVRIVIAYFKFSKQFSSQLV | 0.089 ± 0.22
106 | IKMRWISFKCLPYCMFKNRI | -0.355 ± 0.35
107 | GFSNLNSYD | -0.55 ± 0.3
108 | SVRSVRSNPRFTSHLPCSKK | -0.413 ± 0.54
109 | CQEKRSFPVNMNRDIPCLSS | 0.193 ± 1.5
110 | RYHTVYGIYGRLWGWFMKFD | -0.159 ± 0.33
111 | ISMNF | 0.67 ± 1.1
112 | RNRNCFSRYCRLIV | -1.45 ± 0.56
113 | IPRGCRFKSRVTVKINSGAG | 1.37 ± 0.9
114 | PLAVVVYDNHRRMGHHVRHG | 0.807 ± 0.63
115 | VSVKSNGWMSWWLSWQVPKH | -0.147 ± 0.63
116 | KKFVNFWVMSLYLNSDYSP | inactive
117 | WASFGPLGAQVPDRRFIYMP | 0.151 ± 0.81
118 | LCFCVKVS | inactive
119 | GWCYSDVVMLPF | -0.141 ± 0.34
120 | AEVTDMGDLFSERMLSVVQI | -0.499 ± 1.9
121 | VSLCVSFFFYRSAVITVYAH | 0.282 ± 0.58
122 | LRFLWRRRS | 0.949 ± 0.28
123 | RRGGGGSSIFLMHTAWILLE | 1.03 ± 0.34
124 | LLEALQNLGRLLITTPLVV | 0.475 ± 0.84
125 | YSVLTFADLYMVSMS | inactive

Row | Substance | amyloid nucleation score
126 | CHGCIGTNSEGLCTLYEDYT | -0.594 ± 0.26
127 | VMPSSELYF | 0.349 ± 0.39
128 | QVFATRDAQRYLLMHRIDHN | -0.153 ± 1.7
129 | CELGTIDHSEKMLMVNWCAG | 0.967 ± 0.34
130 | GSNIGQSFWYRRWVQQRTAE | -1.13 ± 2.7
131 | THCLDCVPMNRVDNRCETFS | 0.028 ± 0.36
132 | IKEFRYMLKRYLLWFVDLLL | 0.762 ± 0.59
133 | LHLVTYFVTYVLYSFSISAS | -0.268 ± 0.7
134 | GPSRRTLRGNFNHLVTYWCP | 0.003 ± 0.46
135 | VNCISHGACMCRWFYDSGKK | 0.847 ± 0.38
136 | SSRFDSLFVNNIMIFWVSKF | 5.015 ± 0.048
137 | HGALMNNWDLKACFC | -0.786 ± 0.41
138 | NLLGYVNVQVGAVYTGNNRL | 7.602 ± 0.066
139 | GLDKALTFKALCDLLRNSLC | 0.598 ± 1.2
140 | QAKPIIGRRTPLNDFNSPLY | 0.15 ± 0.37
141 | PWLKVQFVKREVTIDFRVRV | inactive
142 | MILLKCIYY | 0.179 ± 0.39
143 | SLLSYMFQGDDVKCHGSAVL | 1.01 ± 0.76
144 | YSVMYMQSFFDKWLSTSAFR | -1.17 ± 1.4
145 | PESCANSWSMSYGAFGAVYC | inactive
146 | MCIFICLPVTVYDNIFHSFL | 6.22 ± 0.096
147 | ISISLRHECRYKMFEQ | 2.22 ± 0.19
148 | TILYVVARYF | -0.004 ± 0.35
149 | DNDPMYYADSIEECF | inactive
150 | DTGSFFVSVRLSAWVIPPCK | -0.063 ± 0.39

Row | Substance | amyloid nucleation score
151 | CKVDRFIRCGVGYLSG | 0.039 ± 0.28
152 | RAVLSTSELGLPTV | 0.27 ± 0.89
153 | PNYDVMSLYRTNYGNYSHSV | 0.471 ± 0.38
154 | DVVFGFLGVGKLIGVDTMRR | -0.725 ± 0.9
155 | APCRVMIYINMSMDYWTMES | 5.19 ± 0.072
156 | NTISMFDMLQISKTSQHQFA | 0.387 ± 0.45
157 | MFGKLLICYRLYK | 0.084 ± 0.75
158 | QTEQMFGRVDIVYLPAIWSS | 0.447 ± 0.45
159 | FTLGVFSL | 0.017 ± 0.22
160 | SLNSPL | 0.391 ± 0.85
161 | VGRNNASLHSDKNRWFGFGF | 1.49 ± 0.18
162 | FSPLCKPLNSWYNQVKYRRH | 0.131 ± 0.84
163 | SDFGI | -0.647 ± 0.64
164 | SINVL | -1.03 ± 0.55
165 | FWIFRVLSINANTELSWDIV | -0.631 ± 0.32
166 | SLFMSYLCRLVHRLLSRKIG | -0.172 ± 0.28
167 | LRARVGGVEFVYSVQRRLKP | -0.167 ± 0.62
168 | PSYIHMVSGRFSFSSPRGQK | 0.029 ± 0.49
169 | NYITCC | 1.37 ± 0.1
170 | NVHWRDVGGMLFRRNNIRRI | 5.222 ± 0.052
